Results: patent US20130116185A1, “PHOSPHATIDYLINOSITOL 3-KINASES ACTIVITY REGULATOR INCLUDING THE FIFTH ZINC FINGER DOMAIN OF FOG2” (SNU R&DB FOUNDATION, priority 2010, published 2013)

Key:
Type in all cases: cell-based
MDA MB 231 cells [1] = test: Cell proliferation MTT assay; details: synthesized peptide, increasing concentration, FIG. 6B
Description: Because the PI3K activation is critical in cell growth, the cell proliferation was analyzed to investigate the inhibitory effect of the FOG2 zinc finger domain using the MTT assay.
MDA MB 231 cells were seeded in a 96-well plate, and transfected with 100 ng DNA of pCKflag, FOG2-wt, FOG2-ZF-5-m or FOG2-ZF-6-m using Lipofectamine 2000. On 3 days post-transfection, the MTT assay was performed.
MDA MB 231 cells (2×10^3 cells) were seeded in a 96-well plate and treated with 4 μM each peptide for 3 days. After the treatment, 50 μl of MTT solution (2 mg/ml) was added to each well, incubated at 37° C. for 1 hr. Then, 150 μl of DMSO was added to each well and the absorbance value of each well was measured at 590 nm using a microplate reader.

PI3K [2] = molecular target: T1, PI3K (Homo sapiens, UniProt P27986); test: IGF-1-induced PI3K activation in Hep3B cells incubated with peptides; parameters: The cell lysates were immunoprecipitated with p85α (sc-1637, Santa Cruz) and Protein G-Sepharose beads; endogenous in cells; host or cells: Hep3B; details: 4 μM peptides, 48 hr, FIG. 2C
Description: (§1) For measurement of PI3K activity, 10 μl of sonicated PIP2 (1 μg/μl, Calbiochem), 10 μl of 100 mM MgCl2 and 1 μl of [-^32P]ATP (500 μCi/ml) were added to the kinase buffer (10 mM Tris-HCl (pH 7.4), 150 mM NaCl, 1 mM Na3VO4, 10 mM ZnCl2) and incubated at 37° C. for 30 min. After incubation, 20 μl of 6 N HCl was added to stop the reaction and PIP2 was extracted by treatment with 200 μl of methanol:chloroform (1:1) solution. The amount of radioactively labeled PIP2 in the extract was measured using a scintillator counter.
In addition, Hep3B liver cancer cells were incubated with 4 μM peptides for 48 hr and the PI3K activity was analyzed.

PI3K [3] = molecular target: T1, PI3K; test: PI3K activity in MDA MB 231 cells incubated with zinc finger domain peptides; parameters: The cell lysates were immunoprecipitated with p85α (sc-1637, Santa Cruz) and Protein G-Sepharose beads; endogenous in cells
Description: as §1
For peptide treatment, cells were trypsinized to detach them from a culture dish and their aliquot (2×10^5 cells) was incubated with 4 μM peptides in 100 mm dishes. The control was incubated with Mock (DMSO).

MDA MB 231 cells [4] = test: Cell migration, modified Boyden chamber method; details: 4 μM peptide, 2 days of treatment, 18 hr migration, FIG. 3B
Description: MDA MB 231 cells were transfected with pCK-flag (control), FOG2-wt (wild type) and FOG2 mutants having modified zinc finger domain (FOG2-ZF-5-m and FOG2-ZF-6-m). The cell migration was then analyzed using the modified Boyden chamber method (Albini A et al., Cancer Res 1987 47:3239-45). Following the transfection for 24 hr, MDA MB 231 cells (1×10^5) were suspended in a serum-free medium and seeded in triplicate in the upper part of BD chamber ([…] pore size). The lower part was filled with the serum-free medium. Following the incubation at 37° C. for 18 hr, non-migrating cells positioned at the upper surface of filters were cleaned with a cotton swab. The migrating cells passing through the lower surface of filters were fixed with 70% ethanol and treated with the Giemsa staining solution for 50 min. Then, the cells were rinsed with water and observed under a microscope. The cell migration rate was determined by counting the number of cells present in randomly-selected six sections and the migration range was expressed as the average number of cells per a microscopic field.
MDA MB 231 cells were incubated with 4 μM Mock (control, DMSO), 4 μM ZF-5-wt-24, 4 μM ZF-5-m-24, 4 μM ZF-5-wt-20 or 4 μM ZF-3-wt-21. After treatment, the cell migration was analyzed using the modified Boyden chamber method (Albini A et al., Cancer Res 1987 47:3239-45). After 2 days of treatment, MDA MB 231 cells (1×10^5) were suspended in the serum free medium and seeded in triplicate in the upper part of BD chamber ([…] pore size). The lower part was filled with the serum free medium. Following the incubation at 37° C. for 18 hr, non-migrating cells positioned at the upper surface of filters were cleaned with the cotton swab. The migrating cells passing through the lower side surface of filters were fixed with 70% ethanol and stained using the Giemsa stain method. The cell migration rate was determined by counting the number of cells present in randomly-selected six sections and the migration range was expressed as the average number of cells per a microscopic field.

MDA MB 231 cells [5] = test: Apoptosis by FACS analysis (propidium iodide) in MDA MB 231 cells; details: transfected with 1 μg FOG2 fragment, 2 days, FIG. 7A
Description: PI3K inactivation has been reported to cause cancer cell apoptosis, and FOG2 is known to inhibit the PI3K activity. To test whether PI3K inactivation by overexpressing FOG2 induces apoptosis, MDA MB 231 cells overexpressed FOG2 were analyzed with FACS.
MDA MB 231 cells were incubated with Full-FOG2[1-1151], FOG2[1-412], FOG2[413-789] or FOG2[802-1151]. The cells (5×10^4) were seeded in a 12-well plate and transfected with 1 μg of Full-FOG2[1-1151], FOG2[1-412], FOG2[413-789] or FOG2[802-1151] using Lipofectamine 2000. The cells were incubated at 37° C. for 2 days and subject to FACS analysis.
The cells were incubated with FOG2 fragments and fixed with 70% ethanol for 16 hr. The fixed cells were stained using RNase (5 mg/ml) and propidium iodide ([…]). The amount of DNA in stained cells was analyzed with Cell Quest program of FACS caliber (Becton Dickinson).

T1 sequence (P27986 whole entry): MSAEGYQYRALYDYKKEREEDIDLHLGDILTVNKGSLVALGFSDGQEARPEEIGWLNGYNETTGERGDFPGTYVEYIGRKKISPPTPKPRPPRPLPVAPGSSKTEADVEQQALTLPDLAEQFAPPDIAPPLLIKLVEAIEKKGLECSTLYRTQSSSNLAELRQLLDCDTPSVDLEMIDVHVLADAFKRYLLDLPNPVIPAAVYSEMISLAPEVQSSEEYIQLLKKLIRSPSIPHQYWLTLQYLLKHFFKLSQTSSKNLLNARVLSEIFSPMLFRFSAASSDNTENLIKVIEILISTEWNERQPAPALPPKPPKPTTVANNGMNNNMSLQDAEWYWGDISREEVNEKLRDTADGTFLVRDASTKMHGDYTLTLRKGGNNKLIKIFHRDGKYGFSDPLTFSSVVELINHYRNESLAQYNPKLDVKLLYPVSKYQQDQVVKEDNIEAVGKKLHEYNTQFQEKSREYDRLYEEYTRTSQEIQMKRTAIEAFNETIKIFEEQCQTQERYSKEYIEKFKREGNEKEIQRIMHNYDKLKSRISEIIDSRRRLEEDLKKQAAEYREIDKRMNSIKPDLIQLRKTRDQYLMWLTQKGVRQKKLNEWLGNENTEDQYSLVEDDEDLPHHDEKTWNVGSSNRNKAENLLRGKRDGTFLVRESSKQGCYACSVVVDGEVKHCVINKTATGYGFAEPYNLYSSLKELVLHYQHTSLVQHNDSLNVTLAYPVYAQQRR

Molecule | inhibitory effect on cell proliferation (MDA MB 231 cells [1]) | IGF-1-induced PI3K activation (PI3K [2]) | inhibition of PI3K activity (PI3K [3]; MDA MB 231 cells, 4 μM peptide, 48 hr, relative to ZF-5-wt-24, FIG. 5B) | PI3K activity (PI3K [3]; synthesized peptides, FIG. 5) | reduction of cell migration (MDA MB 231 cells [4]) | number of apoptotic cells (MDA MB 231 cells [5])
ZF-5-m-24: FOG2 mutant peptide with altered fifth zinc finger domain (24 amino acids) (CFECNITFNNLDNYLYLVAKKAYC) | does not | did not inhibit | approximately 30% | does not affect | not observed | 
ZF-3-wt-21: The peptide not comprising the fifth zinc finger domain of FOG2 (LKCTVCSYTADSVINFHQHLF) [reference compound] |  | did not inhibit |  |  | not observed | 
FOG2[413-789]: The FOG2 protein comprising the amino acid sequence ranging 413-789th amino acid residues of FOG2 full-length amino acid sequence (protein, UniProt Q8WW38 413-789, looked up, fragment) DLLTRSELPQSQKAMQTKDASSDTELDKCEKKTQLFLTNQRPEIQPTTNKQSFSYTKIKSEPSSPRLASSPVQPNIGPSFPVGPFLSQFSFPQDITMVPQASEILAKMSELVHRRLRHGSSSYPPVIYSPLMPKGATCFECNITFNNLDNYLVHKKHYCSSRWQQMAKSPEFPSVSEKMPEALSPNTGQTSINLLNPAAHSADPENPLLQTSCINSSTVLDLIGPNGKGHDKDFSTQTKKLSTSSNNDDKINGKPVDVKNPSVPLVDGESDPNKTTCEACNITFSRHETYMVHKQYYCATRHDPPLKRSASNKVPAMQRTMRTRKRRKMYEMCLPEQEQRPPLVQQRFLDVANLNNPCTSTQEPTEGLGECYHPRCD |  |  |  |  |  | increased
FOG2[1-412]: Truncated FOG2 mutant in pCK-flag vector, residues 1-412 (protein, UniProt Q8WW38 1-412, looked up, fragment, FLAG tag) MSRRKQSKPRQIKRPLEDAIEDEEEECPSEETDIISKGDFPLEESFSTEFGPENLSCEEVEYFCNKGDDEGIQETAESDGDTQSEKPGQPGVETDDWDGPGELEVFQKDGERKIQSRQQLPVGTTWGPFPGKMDLNNNSLKTKAQVPMVLTAGPKWLLDVTWQGVEDNKNNCIVYSKGGQLWCTTTKAISEGEELIAFVVDFDSRLQAASQMTLTEGMYPARLLDSIQLLPQQAAMASILPTAIVNKDIFPCKSCGIWYRSERNLQAHLMYYCSGRQREAAPVSEENEDSAHQISSLCPFPQCTKSFSNARALEMHLNSHSGVKMEEFLPPGASLKCTVCSYTADSVINFHQHLFSHLTQAAFRCNHCHFGFQTQRELLQHQELHVPSGKLPRESDMEHSPSATEDSLQPAT |  |  |  |  |  | reduces the apoptosis
